According to patent publication US20160194399A1:

Tests used:
[1] = target: SP34-binding peptide 15253; experiment: flow cytometry on peptide-displaying E. coli, 10 nM SP34-dylight-488 with 100 nM isotype control, normalised to peptide expression (yPet-Mona)
[2] = target: SP34-binding peptide 15253; experiment: flow cytometry on peptide-displaying E. coli, 0.1 nM SP34-dylight-488 with 100 nM isotype control, normalised to peptide expression (yPet-Mona)
[3] = target: SP34-binding peptide 15253; experiment: flow cytometry on peptide-displaying E. coli, 100 nM SP34-dylight-488 with 100 nM isotype control, normalised to peptide expression (yPet-Mona)
[4] = target: SP34-binding peptide 15253; experiment: flow cytometry on peptide-displaying E. coli, 1 nM SP34-dylight-488 with 100 nM free human CD3ε as competitor, normalised to peptide expression (yPet-Mona)
[5] = target: SP34-binding peptide 15253; experiment: flow cytometry on peptide-displaying E. coli, 1 nM SP34-dylight-488 with 100 nM isotype control, normalised to peptide expression (yPet-Mona)

expression normalized binding [1]: 0.98
expression normalized binding [2]: 0.55
expression normalized binding [3]: 2.53
expression normalized binding [4]: 0.53
expression normalized binding [5]: 0.68
B1: Anti-CD3ε antibody SP34 (antibody, V domains shown)
VH: EVQLVESGGGLVQPKGSLKLSCAASGFTFNTYAMNWVRQAPGKGLEWVARIRSKYNNYATYYADSVKDRFTISRDDSQSILYLQMNNLKTEDTAMYYCVRHGNFGNSYVSWFAYWGQGTLVTVSA
VL: QAVVTQESALTTSPGETVTLTCRSSTGAVTTSNYANWVQEKPDHLFTGLIGGTNKRAPGVPARFSGSLIGDKAALTITGAQTEDEAIYFCALWYSNLWVFGGGTKLTVL
